Experimental data from the Human Domainome abundance scans (Beltran et al. 2025).
± gives the uncertainty stated by the source.

B1: CD2-associated protein, residues 271 to 331; numbered along this chain, Q9Y5K6 (parent)
chain: KEYCRTLFAYEGTNEDELTFKEGEIIHLISKETGEAGWWRGELNGKEGVFPDNFAVQINEL

Variants of: B1
Assay: abundance fitness (aPCA) (normalised: wild type 0, dead -1); higher = more abundant; growth selection in yeast, the domain comes from the species named
Conditions: Homo sapiens

Variant | abundance fitness
KEYCRTLFAYWGTNEDELTFKEGEIIHLISKETGEAGWWRGELNGKEGVFPDNFAVQINEL | -0.261 ± 0.078
KEYCRTLFAYYGTNEDELTFKEGEIIHLISKETGEAGWWRGELNGKEGVFPDNFAVQINEL | -0.19 ± 0.19
KEYCRTLFAYVGTNEDELTFKEGEIIHLISKETGEAGWWRGELNGKEGVFPDNFAVQINEL | -0.157 ± 0.09
KEYCRTLFAYEQTNEDELTFKEGEIIHLISKETGEAGWWRGELNGKEGVFPDNFAVQINEL | -0.513 ± 0.1
KEYCRTLFAYESTNEDELTFKEGEIIHLISKETGEAGWWRGELNGKEGVFPDNFAVQINEL | -0.113 ± 0.055
KEYCRTLFAYEPTNEDELTFKEGEIIHLISKETGEAGWWRGELNGKEGVFPDNFAVQINEL | -0.381 ± 0.087
KEYCRTLFAYEWTNEDELTFKEGEIIHLISKETGEAGWWRGELNGKEGVFPDNFAVQINEL | -0.471 ± 0.11
KEYCRTLFAYEKTNEDELTFKEGEIIHLISKETGEAGWWRGELNGKEGVFPDNFAVQINEL | -0.224 ± 0.095
KEYCRTLFAYETTNEDELTFKEGEIIHLISKETGEAGWWRGELNGKEGVFPDNFAVQINEL | -0.425 ± 0.068
KEYCRTLFAYEFTNEDELTFKEGEIIHLISKETGEAGWWRGELNGKEGVFPDNFAVQINEL | -0.687 ± 0.11
KEYCRTLFAYEITNEDELTFKEGEIIHLISKETGEAGWWRGELNGKEGVFPDNFAVQINEL | -0.887 ± 0.23
KEYCRTLFAYEHTNEDELTFKEGEIIHLISKETGEAGWWRGELNGKEGVFPDNFAVQINEL | -0.837 ± 0.16
KEYCRTLFAYENTNEDELTFKEGEIIHLISKETGEAGWWRGELNGKEGVFPDNFAVQINEL | -0.646 ± 0.14
KEYCRTLFAYEVTNEDELTFKEGEIIHLISKETGEAGWWRGELNGKEGVFPDNFAVQINEL | -1.1 ± 0.19
KEYCRTLFAYELTNEDELTFKEGEIIHLISKETGEAGWWRGELNGKEGVFPDNFAVQINEL | -0.865 ± 0.089
KEYCRTLFAYECTNEDELTFKEGEIIHLISKETGEAGWWRGELNGKEGVFPDNFAVQINEL | -0.329 ± 0.091
KEYCRTLFAYEYTNEDELTFKEGEIIHLISKETGEAGWWRGELNGKEGVFPDNFAVQINEL | -0.759 ± 0.23
KEYCRTLFAYEMTNEDELTFKEGEIIHLISKETGEAGWWRGELNGKEGVFPDNFAVQINEL | -0.786 ± 0.13
KEYCRTLFAYEATNEDELTFKEGEIIHLISKETGEAGWWRGELNGKEGVFPDNFAVQINEL | 0.036 ± 0.055
KEYCRTLFAYEETNEDELTFKEGEIIHLISKETGEAGWWRGELNGKEGVFPDNFAVQINEL | -0.434 ± 0.11
KEYCRTLFAYEDTNEDELTFKEGEIIHLISKETGEAGWWRGELNGKEGVFPDNFAVQINEL | -0.794 ± 0.13
KEYCRTLFAYEGTNGDELTFKEGEIIHLISKETGEAGWWRGELNGKEGVFPDNFAVQINEL | -0.107 ± 0.061

Variant | abundance fitness
KEYCRTLFAYEGTNLDELTFKEGEIIHLISKETGEAGWWRGELNGKEGVFPDNFAVQINEL | -0.208 ± 0.061
KEYCRTLFAYEGTNRDELTFKEGEIIHLISKETGEAGWWRGELNGKEGVFPDNFAVQINEL | -0.12 ± 0.048
KEYCRTLFAYEGTNNDELTFKEGEIIHLISKETGEAGWWRGELNGKEGVFPDNFAVQINEL | -0.184 ± 0.16
KEYCRTLFAYEGTNDDELTFKEGEIIHLISKETGEAGWWRGELNGKEGVFPDNFAVQINEL | 0.027 ± 0.18
KEYCRTLFAYEGTNIDELTFKEGEIIHLISKETGEAGWWRGELNGKEGVFPDNFAVQINEL | -0.281 ± 0.13
KEYCRTLFAYEGTNSDELTFKEGEIIHLISKETGEAGWWRGELNGKEGVFPDNFAVQINEL | -0.138 ± 0.07
KEYCRTLFAYEGTNHDELTFKEGEIIHLISKETGEAGWWRGELNGKEGVFPDNFAVQINEL | -0.004 ± 0.18
KEYCRTLFAYEGTNADELTFKEGEIIHLISKETGEAGWWRGELNGKEGVFPDNFAVQINEL | -0.072 ± 0.073
KEYCRTLFAYEGTNFDELTFKEGEIIHLISKETGEAGWWRGELNGKEGVFPDNFAVQINEL | -0.43 ± 0.11
KEYCRTLFAYEGTNYDELTFKEGEIIHLISKETGEAGWWRGELNGKEGVFPDNFAVQINEL | -0.261 ± 0.16
KEYCRTLFAYEGTNCDELTFKEGEIIHLISKETGEAGWWRGELNGKEGVFPDNFAVQINEL | -0.123 ± 0.11
KEYCRTLFAYEGTNPDELTFKEGEIIHLISKETGEAGWWRGELNGKEGVFPDNFAVQINEL | -0.027 ± 0.082
KEYCRTLFAYEGTNMDELTFKEGEIIHLISKETGEAGWWRGELNGKEGVFPDNFAVQINEL | -0.23 ± 0.1
KEYCRTLFAYEGTNVDELTFKEGEIIHLISKETGEAGWWRGELNGKEGVFPDNFAVQINEL | -0.329 ± 0.11
KEYCRTLFAYEGTNWDELTFKEGEIIHLISKETGEAGWWRGELNGKEGVFPDNFAVQINEL | -0.343 ± 0.069
KEYCRTLFAYEGTNTDELTFKEGEIIHLISKETGEAGWWRGELNGKEGVFPDNFAVQINEL | -0.27 ± 0.09
KEYCRTLFAYEGTNKDELTFKEGEIIHLISKETGEAGWWRGELNGKEGVFPDNFAVQINEL | -0.268 ± 0.11
KEYCRTLFAYEGTNELELTFKEGEIIHLISKETGEAGWWRGELNGKEGVFPDNFAVQINEL | -0.091 ± 0.04
KEYCRTLFAYEGTNEHELTFKEGEIIHLISKETGEAGWWRGELNGKEGVFPDNFAVQINEL | -0.008 ± 0.098
KEYCRTLFAYEGTNECELTFKEGEIIHLISKETGEAGWWRGELNGKEGVFPDNFAVQINEL | -0.128 ± 0.078
KEYCRTLFAYEGTNENELTFKEGEIIHLISKETGEAGWWRGELNGKEGVFPDNFAVQINEL | 0.014 ± 0.086
